# Experimental data as given in IntAct's records for PubMed 31515488.
# B1: Peroxisomal membrane protein 11C (Homo sapiens), Q96HA9 (parent)
# chain: MASLSGLASALESYRGRDRLIRVLGYCCQLVGGVLVEQCPARSEVGTRLLVVSTQLSHCRTILRLFDDLAMFVYTKQYGLGAQEEDAFVRCVSVLGNLADQLYYPCEHVAWAADARVLHVDSSRWWTLSTTLWALSLLLGVARSLWMLLKLRQRLRSPTAPFTSPLPRGKRRAMEAQMQSEALSLLSNLADLANAVHWLPRGVLWAGRFPPWLVGLMGTISSILSMYQAARAGGQAEATTP
# partner: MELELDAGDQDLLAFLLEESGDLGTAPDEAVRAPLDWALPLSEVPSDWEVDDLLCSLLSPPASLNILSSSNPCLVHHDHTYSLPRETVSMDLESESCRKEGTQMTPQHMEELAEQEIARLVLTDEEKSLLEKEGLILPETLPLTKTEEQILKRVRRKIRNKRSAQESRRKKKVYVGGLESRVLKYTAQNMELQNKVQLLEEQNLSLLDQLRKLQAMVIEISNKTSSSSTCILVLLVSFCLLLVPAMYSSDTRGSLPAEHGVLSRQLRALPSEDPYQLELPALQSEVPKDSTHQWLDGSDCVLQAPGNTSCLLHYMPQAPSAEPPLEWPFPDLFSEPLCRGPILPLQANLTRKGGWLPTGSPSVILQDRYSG
# B2: Nucleolar protein 12 (Homo sapiens), Q9UGY1 (parent)
# chain: MGRNKKKKRDGDDRRPRLVLSFDEEKRREYLTGFHKRKVERKKAAIEEIKQRLKEEQRKLREERHQEYLKMLAEREEALEEADELDRLVTAKTESVQYDHPNHTVTVTTISDLDLSGARLLGLTPPEGGAGDRSEEEASSTEKPTKALPRKSRDPLLSQRISSLTASLHAHSRKKVKRKHPRRAQDSKKPPRAPRTSKAQRRRLTGKARHSGE
# B3: LHFPL tetraspan subfamily member 5 protein (Homo sapiens), Q8TAF8 (parent)
# chain: MVKLLPAQEAAKIYHTNYVRNSRAVGVMWGTLTICFSVLVMALFIQPYWIGDSVNTPQAGYFGLFSYCVGNVLSSELICKGGPLDFSSIPSRAFKTAMFFVALGMFLIIGSIICFSLFFICNTATVYKICAWMQLAAATGLMIGCLVYPDGWDSSEVRRMCGEQTGKYTLGHCTIRWAFMLAILSIGDALILSFLAFVLGYRQDKLLPDDYKADGTEEV
# partner: B1 partner
# B4: Zinc finger protein RFP (Homo sapiens), P14373 (parent)
# chain: MASGSVAECLQQETTCPVCLQYFAEPMMLDCGHNICCACLARCWGTAETNVSCPQCRETFPQRHMRPNRHLANVTQLVKQLRTERPSGPGGEMGVCEKHREPLKLYCEEDQMPICVVCDRSREHRGHSVLPLEEAVEGFKEQIQNQLDHLKRVKDLKKRRRAQGEQARAELLSLTQMEREKIVWEFEQLYHSLKEHEYRLLARLEELDLAIYNSINGAITQFSCNISHLSSLIAQLEEKQQQPTRELLQDIGDTLSRAERIRIPEPWITPPDLQEKIHIFAQKCLFLTESLKQFTEKMQSDMEKIQELREAQLYSVDVTLDPDTAYPSLILSDNLRQVRYSYLQQDLPDNPERFNLFPCVLGSPCFIAGRHYWEVEVGDKAKWTIGVCEDSVCRKGGVTSAPQNGFWAVSLWYGKEYWALTSPMTALPLRTPLQRVGIFLDYDAGEVSFYNVTERCHTFTFSHATFCGPVRPYFSLSYSGGKSAAPLIICPMSGIDGFSGHVGNHGHSMETSP
# partner: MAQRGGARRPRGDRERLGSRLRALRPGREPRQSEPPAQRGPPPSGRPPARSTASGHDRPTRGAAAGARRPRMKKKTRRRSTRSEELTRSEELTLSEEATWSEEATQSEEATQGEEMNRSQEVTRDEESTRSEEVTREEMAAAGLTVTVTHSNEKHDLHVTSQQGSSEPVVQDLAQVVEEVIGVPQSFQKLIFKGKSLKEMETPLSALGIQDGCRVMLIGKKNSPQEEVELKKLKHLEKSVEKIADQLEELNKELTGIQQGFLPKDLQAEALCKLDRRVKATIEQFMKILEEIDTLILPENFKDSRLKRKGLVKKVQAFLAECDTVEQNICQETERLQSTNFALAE
# B5: Transcription factor 12 (Homo sapiens), Q99081-3 (parent)
# chain: MNPQQQRMAAIGTDKELSDLLDFSAMFSPPVNSGKTRPTTLGSSQFSGSGIDERGGTTSWGTSGQPSPSYDSSRGFTDSPHYSDHLNDSRLGAHEGLSPTPFMNSNLMGKTSERGSFSLYSRDTGLPGCQSSLLRQDLGLGSPAQLSSSGKPGTAYYSFSATSSRRRPLHDSAALDPLQAKKVRKVPPGLPSSVYAPSPNSDDFNRESPSYPSPKPPTSMFASTFFMQDGTHNSSDLWSSSNGMSQPGFGGILGTSTSHMSQSSSYGNLHSHDRLSYPPHSVSPTDINTSLPPMSSFHRGSTSSSPYVAASHTPPINGSDSILGTRGNAAGSSQTGDALGKALASIYSPDHTSSSFPSNPSTPVGSPSPLTGTSQWPRPGGQAPSSPSYENSLHSLKNRVEQQLHEHLQDAMSFLKDVCEQSRMEDRLDRLDDAIHVLRNHAVGPSTSLPAGHSDIHSLLGPSHNAPIGSLNSNYGGSSLVASSRSASMVGTHREDSVSLNGNHSVLSSTVTTSSTDLNHKTQENYRGGLQSQSGTVVTTEIKTENKEKDENLHEPPSSDDMKSDDESSQKDIKVSSRGRTSSTNEDEDLNPEQKIEREKERRMANNARERLRVRDINEAFKELGRMCQLHLKSEKPQTKLLILHQAVAVILSLEQQVRERNLNPKAACLKRREEEKVSAVSAEPPTTLPGTHPGLSETTNPMGHM
# partner: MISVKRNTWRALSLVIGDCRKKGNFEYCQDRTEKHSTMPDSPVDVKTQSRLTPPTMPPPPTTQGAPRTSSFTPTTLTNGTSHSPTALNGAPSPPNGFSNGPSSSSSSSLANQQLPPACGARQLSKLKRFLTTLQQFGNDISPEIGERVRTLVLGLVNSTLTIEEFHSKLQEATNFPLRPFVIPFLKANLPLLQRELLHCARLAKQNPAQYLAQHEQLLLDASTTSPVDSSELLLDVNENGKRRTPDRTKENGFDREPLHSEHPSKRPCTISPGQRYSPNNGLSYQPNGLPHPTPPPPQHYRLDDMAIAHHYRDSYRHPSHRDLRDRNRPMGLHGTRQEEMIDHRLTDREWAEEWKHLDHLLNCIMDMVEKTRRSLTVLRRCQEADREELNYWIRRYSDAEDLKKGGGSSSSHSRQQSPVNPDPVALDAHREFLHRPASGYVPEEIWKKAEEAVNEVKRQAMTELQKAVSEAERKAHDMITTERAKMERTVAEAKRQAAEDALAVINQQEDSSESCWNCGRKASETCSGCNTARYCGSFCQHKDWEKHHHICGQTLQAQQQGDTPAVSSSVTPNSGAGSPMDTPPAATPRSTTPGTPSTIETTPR
# B6: Four and a half LIM domains protein 2 (Homo sapiens), Q14192 (parent)
# chain: MTERFDCHHCNESLFGKKYILREESPYCVVCFETLFANTCEECGKPIGCDCKDLSYKDRHWHEACFHCSQCRNSLVDKPFAAKEDQLLCTDCYSNEYSSKCQECKKTIMPGTRKMEYKGSSWHETCFICHRCQQPIGTKSFIPKDNQNFCVPCYEKQHAMQCVQCKKPITTGGVTYREQPWHKECFVCTACRKQLSGQRFTARDDFAYCLNCFCDLYAKKCAGCTNPISGLGGTKYISFEERQWHNDCFNCKKCSLSLVGRGFLTERDDILCPDCGKDI
# B7: Ubiquitin-like protein 4B (Homo sapiens), Q8N7F7 (parent)
# chain: MFLTVKLLLGQRCSLKVSGQESVATLKRLVSRRLKVPEEQQHLLFRGQLLEDDKHLSDYCIGPNASINVIMQPLEKMALKEAHQPQTQPLWHQLGLVLAKHFEPQDAKAVLQLLRQEHEERLQKISLEHLEQLAQYLLAEEPHVEPAGERELEAKARPQSSCDMEEKEEAAADQ
# partner: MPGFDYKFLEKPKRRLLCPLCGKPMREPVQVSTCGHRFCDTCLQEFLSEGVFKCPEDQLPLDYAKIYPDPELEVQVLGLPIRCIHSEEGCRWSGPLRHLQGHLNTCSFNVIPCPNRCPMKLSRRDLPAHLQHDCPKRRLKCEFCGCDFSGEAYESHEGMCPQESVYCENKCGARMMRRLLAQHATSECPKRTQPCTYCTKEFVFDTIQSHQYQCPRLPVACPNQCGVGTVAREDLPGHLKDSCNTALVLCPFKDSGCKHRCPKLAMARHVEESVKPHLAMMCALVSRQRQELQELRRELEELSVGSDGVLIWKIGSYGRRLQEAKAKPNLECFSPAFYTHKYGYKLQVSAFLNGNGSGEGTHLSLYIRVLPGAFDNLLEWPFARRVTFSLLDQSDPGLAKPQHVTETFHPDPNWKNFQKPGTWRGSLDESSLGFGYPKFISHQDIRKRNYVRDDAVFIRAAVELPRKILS
# Variants of: B1
# Conditions: with creb3_human CREB3, O43889
row,Variant,effect of a mutation on the interaction
1,MASLSGLASALESYRGRDRLIRVLGYCCQLVGGVLVEQCPARSEVGTRLLVVSTQLSHCRTILRLFDDLAMFVYTKQYGLGAQEEDAFVRWVSVLGNLADQLYYPCEHVAWAADARVLHVDSSRWWTLSTTLWALSLLLGVARSLWMLLKLRQRLRSPTAPFTSPLPRGKRRAMEAQMQSEALSLLSNLADLANAVHWLPRGVLWAGRFPPWLVGLMGTISSILSMYQAARAGGQAEATTP [C91W],with no effect

# Variants of: B2
# Conditions: with cep70_human CEP70, Q8NHQ1
# Chain of cep70_human CEP70, Q8NHQ1 (Q8NHQ1 whole entry): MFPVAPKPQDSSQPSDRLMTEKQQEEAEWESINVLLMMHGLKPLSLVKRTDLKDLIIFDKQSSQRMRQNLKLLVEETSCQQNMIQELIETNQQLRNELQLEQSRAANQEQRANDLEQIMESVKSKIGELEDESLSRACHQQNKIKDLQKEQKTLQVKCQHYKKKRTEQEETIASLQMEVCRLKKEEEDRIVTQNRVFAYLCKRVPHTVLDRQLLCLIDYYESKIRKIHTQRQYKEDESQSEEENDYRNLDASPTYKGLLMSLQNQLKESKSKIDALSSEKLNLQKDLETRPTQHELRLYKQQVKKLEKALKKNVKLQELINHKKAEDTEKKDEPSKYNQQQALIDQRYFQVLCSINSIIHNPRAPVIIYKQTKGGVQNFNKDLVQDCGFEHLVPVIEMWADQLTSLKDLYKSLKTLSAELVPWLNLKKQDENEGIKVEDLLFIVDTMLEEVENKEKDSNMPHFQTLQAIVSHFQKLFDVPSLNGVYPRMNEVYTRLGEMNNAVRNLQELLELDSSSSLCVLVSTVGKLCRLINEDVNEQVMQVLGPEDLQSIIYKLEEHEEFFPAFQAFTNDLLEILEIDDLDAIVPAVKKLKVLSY
row,Variant,effect of a mutation on the interaction
1,MGRNKKKKRDGDDRRPRLVLSFDEEKRREYLTGFHKRKVERKKAAIEEIKQRLKEEQRKLREERHQEYLKMLAEREEALEEADELDRLVTAKTESVQHDHPNHTVTVTTISDLDLSGARLLGLTPPEGGAGDRSEEEASSTEKPTKALPRKSRDPLLSQRISSLTASLHAHSRKKVKRKHPRRAQDSKKPPRAPRTSKAQRRRLTGKARHSGE [Y98H],with no effect

# Variants of: B3
# Conditions: with creb3_human CREB3, O43889
row,Variant,effect of a mutation on the interaction
1,MVKLLPAQEAAKIYHTNYVRNSRAVGVMWGTLTICFSVLVMALFIQPYWIGDSVNTPQAGYFGLFSYCVGNVLSSELICKGGPLDFSSIPSRAFKTAMFFVALGMFLIIGSIICFSLFFICNTATVYKICAWMQLAAATGLMIGCLVYPDGWDSSEVRRMCGEQTGKYTLGHCTIRWAFMLAILSIGDALILSFLAFVLGYRQDNLLPDDYKADGTEEV [K205N],with no effect

# Variants of: B4
# Conditions: with bag1_human BAG1, Q99933
row,Variant,effect of a mutation on the interaction
1,MASGSVAECLQQETTCPVCLQYFAEPMMLDCGHNICCACLARCWGTAETNVSCPQCRETFPQRHMRPNRHLANVTQLVKQLRTERPSGPGGEMGVCEKHREPLKLYCEEDQMPICVVCDRSREHRGHSVLPLEEAVEGFKEQIQNQLDHLKRVKDLKKRRRAQGEQARAELLSLTQMEREKIVWEFEQLYHSLKEHEYRLLARLEELDLAIYNSINGAITQFSCNISHLSSLIAQLEEKQQQPTRELLQDIGDTLSRAERIRIPEPWITPPDLQEKIHIFAQKCLFLTESLKQFTEKMQSDMEKIQELREAQLYSVDVTLDPDTAYPSLILSDNLRQVRYSYLQQDLPDNPERFSLFPCVLGSPCFIAGRHYWEVEVGDKAKWTIGVCEDSVCRKGGVTSAPQNGFWAVSLWYGKEYWALTSPMTALPLRTPLQRVGIFLDYDAGEVSFYNVTERCHTFTFSHATFCGPVRPYFSLSYSGGKSAAPLIICPMSGIDGFSGHVGNHGHSMETSP [N355S],with no effect

# Variants of: B5
# Conditions: with mtg8_human RUNX1T1, Q06455
row,Variant,effect of a mutation on the interaction
1,R74G,with no effect
2,Y120C,with no effect
3,S446F,with no effect
4,N606H,with no effect
5,A155T,with no effect
6,A482V,with no effect

# Variants of: B6
# Conditions: with gbg12_human GNG12, Q9UBI6
# Chain of gbg12_human GNG12, Q9UBI6 (Q9UBI6 whole entry): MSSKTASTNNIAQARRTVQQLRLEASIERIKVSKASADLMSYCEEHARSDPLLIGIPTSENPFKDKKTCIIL
row,Variant,effect of a mutation on the interaction
1,MTERFDCHHCNESLFGKKYILREESPYCVVCFETLFANTCEECGKPIGCDCKDLSYKDRHWHEACFHCSQCRNSLVDKPFAAKEDQLLCTDCYSNEYSSKCQECKKTIMPGTRKMEYKGSSWHETCFICHRCQQPIGTKSFIPKDNQNFCVPCYEKQHAMQCVQCKKPITTGGVTYQEQPWHKECFVCTACRKQLSGQRFTARDDFAYCLNCFCDLYAKKCAGCTNPISGLGGTKYISFEERQWHNDCFNCKKCSLSLVGRGFLTERDDILCPDCGKDI [R177Q],with no effect

# Variants of: B6
# Conditions: with inca1_human INCA1, Q0VD86
# Chain of inca1_human INCA1, Q0VD86 (Q0VD86 whole entry): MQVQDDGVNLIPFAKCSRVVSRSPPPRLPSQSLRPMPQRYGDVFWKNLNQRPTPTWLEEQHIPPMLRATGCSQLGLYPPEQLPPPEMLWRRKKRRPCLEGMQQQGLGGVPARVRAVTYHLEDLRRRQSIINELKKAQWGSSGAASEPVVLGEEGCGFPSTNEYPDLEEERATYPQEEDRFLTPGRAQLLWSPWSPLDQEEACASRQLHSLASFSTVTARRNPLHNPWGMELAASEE
row,Variant,effect of a mutation on the interaction
1,MTERFDCHHCNESLFGKKYILREESPYCVVCFETLFANTCEECGKPIGCDCKDLSYKDRHWHEACFHCSQCRNSLVDKPFAAKEDQLLCTDCYSKEYSSKCQECKKTIMPGTRKMEYKGSSWHETCFICHRCQQPIGTKSFIPKDNQNFCVPCYEKQHAMQCVQCKKPITTGGVTYREQPWHKECFVCTACRKQLSGQRFTARDDFAYCLNCFCDLYAKKCAGCTNPISGLGGTKYISFEERQWHNDCFNCKKCSLSLVGRGFLTERDDILCPDCGKDI [N95K],with no effect
2,MTERFDCHHCNESLFGKKYILREESPYCVVCFETLFSNTCEECGKPIGCDCKDLSYKDRHWHEACFHCSQCRNSLVDKPFAAKEDQLLCTDCYSNEYSSKCQECKKTIMPGTRKMEYKGSSWHETCFICHRCQQPIGTKSFIPKDNQNFCVPCYEKQHAMQCVQCKKPITTGGVTYREQPWHKECFVCTACRKQLSGQRFTARDDFAYCLNCFCDLYAKKCAGCTNPISGLGGTKYISFEERQWHNDCFNCKKCSLSLVGRGFLTERDDILCPDCGKDI [A37S],with no effect

# Variants of: B7
# Conditions: with traf4_human TRAF4, Q9BUZ4
row,Variant,effect of a mutation on the interaction
1,MFLTVKLLLGQRCSLKVSGQESVATLKRLVSRRLKVPEEQQHLLFRGQLLEDDKHLSDYCIGPNASINVIMQPLEKMALKEAHQPQTQPLWHQLGLVLAKHFEPQDAKAVLQLLRQEHEEHLQKISLEHLEQLAQYLLAEEPHVEPAGERELEAKARPQSSCDMEEKEEAAADQ [R121H],disrupting interaction strength
